Measured values from the supplement of paper PMC10567573.

B1: KCNA3 (parent)
chain: GERVVINISGLRFETQLKTLCQFP
B2: ZNF649 (parent)
chain: EHERAHRGEKPHGCSLCGKAFYKR

Variants of: B1
Test: protein stability index of a GFP-peptide fusion (GPS, HEK-293T) (PSI 1-6); higher = more stable
Conditions: c terminus: a fixed tail appended
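Further: lentivirally expressed fusions sorted by FACS into six bins by GFP to DsRed ratio, PSI derived from sequencing read proportions per bin multiplied by bin number.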

Protein stability index: each site, then its substitutions
V5: A 1.53; L 2.29; H 1.93; E 1.47; G 2.04; R 2.18; P 2.17; F 2.05; Q 1.94; C 2.49; I 2.99; N 1.76; Y 2.39; D 1.55; T 2.42; S 1.67; K 2.49
G10: V 1; R 1.26; D 1.47; T 2.62; L 3.08; P 4.02; I 1.81; F 2.81; E 2.8; N 2.35
L17: I 2.92; A 2.88; V 2.92; T 2.85; K 1.42; R 1.87; P 2.58; E 1.87; D 2.06; H 3.03; N 2.04
N7: Y 1.8; G 2.14; E 2.1; S 4.73; C 2.1; Q 2.66; H 4.19; D 1.83; P 1.53
R3: P 2.26; M 4.26; N 1.09; D 2.44; H 1.04; G 1.85; S 2.16; C 2.36; Y 3.34; K 2.73; A 3.5; Q 3.4; L 2.75; T 3.87
R12: L 4.18; W 2.37; C 2.46; K 2.5; P 1.45; N 2.85; Y 2.61; Q 2.21; S 1.48; D 1.84
G1: Q 1.95; N 2.16; Y 4.07; D 1.82; R 3.52; C 2.8; S 3; L 2.66; M 3.17; I 3.44; H 2.1; T 2.96; K 2.52; W 4.64
F13: P 2.27; A 1.45; T 1.56; L 1.06; G 2.14; K 1.67; S 1.97; I 2.7; N 1.26; C 2.83; V 2.58; E 2.14; D 1.48; Q 1.87; M 2.64
T15: Y 2.63; L 3.24; E 2.62; G 4.2; N 3.66; R 2.69; Q 2.31
S9: L 2.27; Q 3.24; K 2.4; G 1.04; D 1.51; V 1.83; F 2.47; A 1.29; E 3.59; P 1
E14: H 3.28; K 2.42; Q 1.04; G 2.74; P 1; R 1.89; N 2.08; D 2.37; V 3; M 3.03; T 1.83
Q16: G 2.49; D 1.87; M 4.05; S 2.69; P 2; Y 2.02; T 1.39; F 2.47; N 1.04; H 2.53
K18: A 3.07
L11: V 3.59; G 2.45; F 1.61; P 1.54; H 1.38; N 2.94; W 2.49; E 2.01; A 1.34; I 2.68; D 1.81; Q 1.45; S 1.75; T 1.58
I6: Y 1.33; R 2.21; A 2.21; G 1.74; M 1.32; N 3.47; T 2.75; P 3.15; H 1.78; K 2.68; E 2.52; D 2.46; Q 3.56; C 1.38; S 2.86
V4: M 2.79; Q 2.34; P 2.13; W 2.82; D 1.88; G 1.66; H 2.16; A 1.75; R 2.28; F 3.43; T 2.27; E 1.92; S 2.59; Y 2.16; C 3.21; N 1.64; K 2.23
E2: L 3.35; G 2.35; H 1.45; T 2.21; M 2.93; K 2.2; Q 3.74; N 2.26; F 1.98; P 4.1
I8: S 1.86; H 2.55; G 2.23; P 3.11; M 1.65; Y 2; N 2.53; K 1.97; T 2.17; R 1.83; Q 2.12; E 3.02; D 2.82; A 1.67; W 1.76; V 1.28; F 2.85; C 2.62

Variants of: B2
Test: as above
Conditions: c terminus: a fixed tail appended

Protein stability index of substitutions, site by site:
R24: Q 4.13; T 4.1; V 2.05; I 2.81; Y 3.5; P 3; C 4.03; W 3.25; A 3.46; G 3.11; S 4.19; F 2.65; D 3.35
C17: M 3.87; K 4.13; G 4.07; W 3; F 3.48; Q 4.46; T 4.48; R 4.43; Y 2.48; P 3.85; L 3.64; E 2.58; S 3.35; D 4.19; V 3.18; H 3.67; N 4.44; I 3.81
G18: R 3.06; S 2.5; V 2; T 2.34; A 1.43; L 2.42; Q 1.89; E 2.77; M 1.72; Y 1.85; W 1.54; H 2.15; D 2.45; N 2.49; C 1.59; K 2.03; I 1.67
K19: D 2.13; M 2.01; P 1.42; T 1.97; C 1.78; V 1.44; G 1.41; Y 2.19; H 2.44; N 2.43; E 1.73; A 1.61; I 1.61
A20: D 2.51; R 2.78; I 1.95; F 2.57; M 2.62; Y 1.75; N 1.83; K 2.74; C 2; T 2.17; V 1.79; H 3.2
F21: P 2.74; G 2.11; L 3.61; Y 2.95; M 2.37; T 2.14; V 2.01; H 3.38; S 2.13; C 2.13; D 2.34
Y22: I 1.93; V 1.36; F 2.95; L 2.68; T 1.93; W 1.81; P 1.52; D 2.48; Q 2.36; K 3.13; N 2.35; A 2.22; M 2.69
K23: L 1.77; T 2.8; Q 2.24; H 1.83; G 2.65; M 3; C 2.64; D 1.9; I 1.92; S 2.03; R 3.06; V 1.95
L16: Q 3.02; P 3.48; K 2.79; G 3.96; I 2.2; Y 2.14; R 2.18; V 3.34; T 2.16; M 1.74; S 1.97; N 2.07
